{"source": "patent US5912120A", "about": "“Cloning, expression and diagnosis of human cytochrome P450 2C19: the principal determinant of s-mephenytoin metabolism” (The United States of America as represented by the …, priority 1994, dated 1999)", "molecules": {"B1": {"name": "2C9: recombinant human cytochrome P450 2C9, allele not specified in the text (protein, UniProt P11712 1-490, looked up)", "Cytochrome P450 2C9": "MDSLVVLVLCLSCLLLLSLWRQSSGRGKLPPGPTPLPVIGNILQIGIKDISKSLTNLSKVYGPVFTLYFGLKPIVVLHGYEAVKEALIDLGEEFSGRGIFPLAERANRGFGIVFSNGKKWKEIRRFSLMTLRNFGMGKRSIEDRVQEEARCLVEELRKTKASPCDPTFILGCAPCNVICSIIFHKRFDYKDQQFLNLMEKLNENIKILSSPWIQICNNFSPIIDYFPGTHNKLLKNVAFMKSYILEKVKEHQESMDMNNPQDFIDCFLMKMEKEKHNQPSEFTIESLENTAVDLFGAGTETTSTTLRYALLLLLKHPEVTAKVQEEIERVIGRNRSPCMQDRSHMPYTDAVVHEVQRYIDLLPTSLPHAVTCDIKFRNYLIPKGTTILISLTSVLHDNKEFPNPEMFDPHHFLDEGGNFKKSKYFMPFSAGKRICVGEALAGMELFLFLTSILQNFNLKSLVDPKNLDTTPVVNGFASVPPFYQLCFIPV"}, "B2": {"name": "2C9 Purified from Human Liver: cytochrome P450 2C9 purified from human liver microsomes (protein, UniProt P11712 1-490, looked up)", "Cytochrome P450 2C9": "MDSLVVLVLCLSCLLLLSLWRQSSGRGKLPPGPTPLPVIGNILQIGIKDISKSLTNLSKVYGPVFTLYFGLKPIVVLHGYEAVKEALIDLGEEFSGRGIFPLAERANRGFGIVFSNGKKWKEIRRFSLMTLRNFGMGKRSIEDRVQEEARCLVEELRKTKASPCDPTFILGCAPCNVICSIIFHKRFDYKDQQFLNLMEKLNENIKILSSPWIQICNNFSPIIDYFPGTHNKLLKNVAFMKSYILEKVKEHQESMDMNNPQDFIDCFLMKMEKEKHNQPSEFTIESLENTAVDLFGAGTETTSTTLRYALLLLLKHPEVTAKVQEEIERVIGRNRSPCMQDRSHMPYTDAVVHEVQRYIDLLPTSLPHAVTCDIKFRNYLIPKGTTILISLTSVLHDNKEFPNPEMFDPHHFLDEGGNFKKSKYFMPFSAGKRICVGEALAGMELFLFLTSILQNFNLKSLVDPKNLDTTPVVNGFASVPPFYQLCFIPV"}, "B3": {"name": "2C8 Purified from Human Liver: cytochrome P450 2C8 purified from human liver microsomes (protein, UniProt P10632 1-490, looked up)", "Cytochrome P450 2C8": "MEPFVVLVLCLSFMLLFSLWRQSCRRRKLPPGPTPLPIIGNMLQIDVKDICKSFTNFSKVYGPVFTVYFGMNPIVVFHGYEAVKEALIDNGEEFSGRGNSPISQRITKGLGIISSNGKRWKEIRRFSLTTLRNFGMGKRSIEDRVQEEAHCLVEELRKTKASPCDPTFILGCAPCNVICSVVFQKRFDYKDQNFLTLMKRFNENFRILNSPWIQVCNNFPLLIDCFPGTHNKVLKNVALTRSYIREKVKEHQASLDVNNPRDFIDCFLIKMEQEKDNQKSEFNIENLVGTVADLFVAGTETTSTTLRYGLLLLLKHPEVTAKVQEEIDHVIGRHRSPCMQDRSHMPYTDAVVHEIQRYSDLVPTGVPHAVTTDTKFRNYLIPKGTTIMALLTSVLHDDKEFPNPNIFDPGHFLDKNGNFKKSDYFMPFSAGKRICAGEGLARMELFLFLTTILQNFNLKSVDDLKNLNTTAVTKGIVSLPPSYQICFIPV"}, "B4": {"name": "2C18-Thr^385 (29c): recombinant human P450 2C18 allelic variant, clone 29c (Thr at 385), in yeast microsomes; residue 2 not stated in Table III (protein, UniProt P33260 26-490, looked up)", "Cytochrome P450 2C18": "RGRLPSGPTPLPIIGNILQLDVKDMSKSLTNFSKVYGPVFTVYFGLKPIVVLHGYEAVKEALIDHGEEFSGRGSFPVAEKVNKGLGILFSNGKRWKEIRRFCLMTLRNFGMGKRSIEDRVQEEARCLVEELRKTNASPCDPTFILGCAPCNVICSVIFHDRFDYKDQRFLNLMEKFNENLRILSSPWIQVCNNFPALIDYLPGSHNKIAENFAYIKSYVLERIKEHQESLDMNSARDFIDCFLIKMEQEKHNQQSEFTVESLIATVTDMFGAGTETTSTTLRYGLLLLLKYPEVTAKVQEEIECVVGRNRSPCMQDRSHMPYTDAVVHEIQRYIDLLPTNLPHAVTCDVKFKNYLIPKGTTIITSLTSVLHNDKEFPNPEMFDPGHFLDKSGNFKKSDYFMPFSAGKRMCMGEGLARMELFLFLTTILQNFNLKSQVDPKDIDITPIANAFGRVPPLYQLCFIPV"}, "B5": {"name": "2C18: recombinant human cytochrome P450 2C18, variant not specified in the text (protein, UniProt P33260 26-490, looked up)", "Cytochrome P450 2C18": "RGRLPSGPTPLPIIGNILQLDVKDMSKSLTNFSKVYGPVFTVYFGLKPIVVLHGYEAVKEALIDHGEEFSGRGSFPVAEKVNKGLGILFSNGKRWKEIRRFCLMTLRNFGMGKRSIEDRVQEEARCLVEELRKTNASPCDPTFILGCAPCNVICSVIFHDRFDYKDQRFLNLMEKFNENLRILSSPWIQVCNNFPALIDYLPGSHNKIAENFAYIKSYVLERIKEHQESLDMNSARDFIDCFLIKMEQEKHNQQSEFTVESLIATVTDMFGAGTETTSTTLRYGLLLLLKYPEVTAKVQEEIECVVGRNRSPCMQDRSHMPYTDAVVHEIQRYIDLLPTNLPHAVTCDVKFKNYLIPKGTTIITSLTSVLHNDKEFPNPEMFDPGHFLDKSGNFKKSDYFMPFSAGKRMCMGEGLARMELFLFLTTILQNFNLKSQVDPKDIDITPIANAFGRVPPLYQLCFIPV"}, "B6": {"name": "2C18-Asp^2 Thr^385 (29c-1a): recombinant human P450 2C18, clone 29c with correct Asp^2, Thr^385 (protein, UniProt P33260 26-490, looked up)", "Cytochrome P450 2C18": "RGRLPSGPTPLPIIGNILQLDVKDMSKSLTNFSKVYGPVFTVYFGLKPIVVLHGYEAVKEALIDHGEEFSGRGSFPVAEKVNKGLGILFSNGKRWKEIRRFCLMTLRNFGMGKRSIEDRVQEEARCLVEELRKTNASPCDPTFILGCAPCNVICSVIFHDRFDYKDQRFLNLMEKFNENLRILSSPWIQVCNNFPALIDYLPGSHNKIAENFAYIKSYVLERIKEHQESLDMNSARDFIDCFLIKMEQEKHNQQSEFTVESLIATVTDMFGAGTETTSTTLRYGLLLLLKYPEVTAKVQEEIECVVGRNRSPCMQDRSHMPYTDAVVHEIQRYIDLLPTNLPHAVTCDVKFKNYLIPKGTTIITSLTSVLHNDKEFPNPEMFDPGHFLDKSGNFKKSDYFMPFSAGKRMCMGEGLARMELFLFLTTILQNFNLKSQVDPKDIDITPIANAFGRVPPLYQLCFIPV"}}, "assay_type_in_all_cases": "biochemical", "key": {"[1]": {"assay": "Mephenytoin 4'-hydroxylase assay, recombinant human CYP2C yeast microsomes (Table III)", "protocol": "(§1) Purified or recombinant yeast microsomes (10-50 pmol) were preincubated with dilauroylphosphatidylcholine (15 μg per 50 pmol P450), P450 reductase (500 U per 50 mol P450), and human cytochrome b5 (2:1 molar ratio when added). The reconstituted mixture was preincubated for 5 min at 37° C., and then placed on ice. A final concentration of 0.4 mM radiolabelled S- or R-mephenytoin (20.7 mCi/mM and 20.9 mCi/mMol) was added to 50 mM HEPES buffer (pH 7.4) containing 0.1 mM EDTA and 1.5 mM MgCl2 for recombinant 2C proteins. The mixture was then incubated at 37° with shaking for 3 min, and the reaction started with the addition of 2mM NADPH and terminated after 30 min with an equal volume of methanol. […] Reaction volumes were generally 0.25 ml except when the volume of recombinant purified cytochrome or yeast microsomes was greater than 50 μl. In these cases, the volume was increased to 0.5 ml to limit the volume of glycerol from the purified preparation to <4% of the final volume."}, "[2]": {"assay": "Mephenytoin 4'-hydroxylase assay, purified recombinant P450 2C in reconstituted system (Table IV)", "details": "for stereospecificity of 4'-hydroxylation of mephenytoin: purified, reconstituted system (Table IV)", "description": "Recombinant yeast microsomes were prepared from a 10-12 l culture, and recombinant P450s were purified by aminooctylsepharose chromatography as described by Iwasaki et al., J. Biol. Chem. 226:3380-3382 (1991). The Emulgen was then removed from protein by adsorption of the protein to a 4 g hydroxylapatite column (Hypatite C, Clarkson Chemical Company, Williamsport, Pa.) equilibrated with 10 mM potassium phosphate buffer (pH 7.2), 20% glycerol, 0.1 mM EDTA, and 0.1 mM DTT and washing the column with the same buffer until the absorbance at 280 nm returned to zero. The P450 was then eluted with […], and dialyzed overnight against 100 mM potassium phosphate buffer (pH 7.4, 20% glycerol and 0.1 mM EDTA. Absolute and CO difference spectra of purified P450s were determined in the same buffer but containing 0.2% Emulgen and 0.5% cholate.\nMephenytoin 4'-hydroxylase activity was measured by a modification of the radiometric HPLC assay described by Shimada et al., J. Biol. Chem. 261:909-921 (1986), as described below. Purified or recombinant yeast microsomes (10-50 pmol) were preincubated with dilauroylphosphatidylcholine (15 μg per 50 pmol P450), P450 reductase (500 U per […] P450), and human cytochrome b5 (2:1 molar ratio when added). The reconstituted mixture was preincubated for 5 min at 37° C., and then placed on ice. A final concentration of 0.4 mM radiolabelled S- or R-mephenytoin (20.7 mCi/mM and 20.9 mCi/mMol) was added to 50 mM HEPES buffer (pH 7.4) containing 0.1 mM EDTA and 1.5 mM MgCl2 for recombinant 2C proteins. The mixture was then incubated at 37° with shaking for 3 min, and the reaction started with the addition of 2mM NADPH and terminated after 30 min with an equal volume of methanol. Cytochrome b5 was not included in all CYP2C18 reactions, since it had no effect or produced a slight inhibition on the activity of this CYP protein. Reaction volumes were generally 0.25 ml except when the volume of recombinant purified cytochrome or yeast microsomes was greater than 50 μl. In these cases, the volume was increased to 0.5 ml to limit the volume of glycerol from the purified preparation to <4% of the final volume.\nAt the end of the incubation period, the reactions were terminated with an equal volume of methanol. The incubation mixture was centrifuged at 10,000 g for 10 min and an aliquot assayed directly using HPLC without extraction. Samples with particularly low activity were concentrated by lyophilization and redissolved in a small volume of methanol:water (1:1) before assay. The HPLC system consisted of a reverse phase C18 (10 μm) Versapak, 300 mm×4.1 mm column (Altech Associates, Deerfield, Ill.) using an isocratic solvent consisting of methanol:water (45:55) with a flow rate was kept of 1 ml/min for 25 min. Detection of radioactive peaks was accomplished using an on-line Flow-One radiochemical detector (Radiomatic Instruments Co., Tampa, Fla. Detection of the unlabeled 4'-hydroxymephenytoin authentic standard was performed using an on-line multiwavelength UV detector at both 211 and 230 nm.\nRecombinant P450s were purified from yeast microsomes and assays performe"}, "[3]": {"assay": "Mephenytoin 4'-hydroxylase assay, recombinant human CYP2C yeast microsomes (Table III)", "details": "recombinant yeast microsomes + P450 reductase, phospholipid, cytochrome b5 2:1; 0.4 mM substrate, HEPES pH 7.4, 37° C. 30 min; means ± SE", "protocol": "as §1"}, "[4]": {"assay": "Tolbutamide hydroxylase assay, recombinant human CYP2C yeast microsomes (Table V)", "details": "1 mg yeast microsomal protein + purified P450 reductase (1,000 units)", "protocol": "Tolbutamide hydroxylase activity was measured according to Knodell et al., J. Pharmacol. Exper. […] Yeast microsomes (1 mg protein) were preincubated with 300 pmol hamster P450 reductase in 0.2 ml of the incubation buffer (below) for 3 min at 37° C. The reaction was then placed on ice and incubated in 0.2 ml of 50 mM HEPES buffer (pH 7.4) containing 1.5 mM MgCl2, 0.1 mM EDTA in a final volume of 1 ml and 1 mM sodium tolbutamide. The reaction was initiated with 0.5 mM NADPH. Human liver microsomes (0.22 mg protein) were incubated without reductase. Incubations with reconstituted recombinant P450s contained 50 pmol purified P450 enzyme, 150 pmol P450 reductase, and 15 μg dilauroylphosphatidyl-choline, and were performed in 100 mM potassium phosphate buffer (pH 7.4). Reactions were terminated after 60 min at 37° C. by the addition of 50 μl of 4N HCl, followed by extraction with 3 ml of water-saturated ethyl acetate. The ethyl acetate extracts were dried under nitrogen at 40° C., the residue resolubilized in 200 μl methanol, and 4-hydroxytolbutamide then assayed using HPLC by injecting 50 μl of the solubilized extract onto a μBONDAPAK C18 column (4.6×300 mm) using 0.05% phosphoric acid, pH 2.6: acetonitrile (6:4, v/v) as the mobile phase with a flow rate of 1 ml/min. The column eluate was monitored at 230 nm and rates of product formation were determined from standard curves prepared by adding varying amounts of 4-hydroxytolbutamide to incubations conducted without NADPH. […] Samples were analyzed in triplicate."}, "[5]": {"details": "purified P450, reconstituted system"}}}
{"molecule": "B1", "values": [{"measurement": "rate of 4'-hydroxylation of S-mephenytoin", "setting": "[1]; recombinant yeast microsomes", "result": 0.02, "unit": "nmol/min/nmol"}, {"measurement": "turnover number higher than the activity of 2C9 purified from human liver", "setting": "[2]; S-mephenytoin 4'-hydroxylation", "result": "~ 100 times"}, {"measurement": "stereospecificity of 4'-hydroxylation of mephenytoin", "setting": "[2]", "result": "not stereospecific"}]}
{"molecule": "B2", "values": [{"measurement": "R/S Ratio", "setting": "[2]; [5]", "result": 1.6}]}
{"molecule": "B3", "values": [{"measurement": "R/S Ratio", "setting": "[2]; [5]", "result": 1.6}]}
{"molecule": "B4", "values": [{"measurement": "Mephenytoin 4'-Hydroxylase Activity S", "setting": "[1]; recombinant yeast microsomes + P450 reductase, phospholipid, cytochrome b5 2:1, 0.4 mM substrate, HEPES pH 7.4, 37° C. 30 min, means ± SE", "result": "0.042 ± 0.004", "unit": "nmol/min/nmol P450"}, {"measurement": "Mephenytoin 4'-Hydroxylase Activity S", "setting": "[1]; recombinant yeast microsomes, no b5", "result": "0.034 ± 0.008", "unit": "nmol/min/nmol P450"}, {"measurement": "R/S Ratio", "setting": "[1]; recombinant yeast microsomes, with cytochrome b5", "result": 1.3}, {"measurement": "Mephenytoin 4'-Hydroxylase Activity R", "setting": "[3]", "result": "0.054 ± 0.003", "unit": "nmol/min/nmol P450"}]}
{"molecule": "B5", "values": [{"measurement": "stereospecificity of 4'-hydroxylation of mephenytoin", "setting": "[2]", "result": "stereoselective for the R-enantiomer"}]}
{"molecule": "B6", "values": [{"measurement": "R/S Ratio", "setting": "[2]; [5]", "result": 1.3}, {"measurement": "Mephenytoin 4'-Hydroxylase Activity S", "setting": "[2]; purified P450, reconstituted system, triplicate, means ± SE, blank not subtracted", "result": "0.116 ± 0.010", "unit": "nmol/min/nmol P450"}, {"measurement": "Mephenytoin 4'-Hydroxylase Activity R", "setting": "[2]; triplicate, means ± SE, blank not subtracted", "result": "0.147 ± 0.025", "unit": "nmol/min/nmol P450"}, {"measurement": "Tolbutamide Hydroxylase Activity (nmol/min/nmol P450)", "setting": "[4]; adjusted for P450 content", "result": "0.19 ± 0.02", "unit": "nmol/min/nmol P450"}, {"measurement": "Tolbutamide Hydroxylase Activity (nmol/min/mg protein)", "setting": "[4]; means ±SE", "result": "9.3 ± 0.7", "unit": "nmol/min/mg protein"}]}
